# From US9377466B2, “Compounds and methods” (Modpro AB, priority 2010, dated 2016)
# Like-named read-outs stand apart in the source and are kept apart here. Ends that are not written are not given here.
# Assays:
# thymidine kinase (TK) [1] = assay: Fluorescence binding studies with TK; details: 2 μM peptide, one and two equivalents of TK
# Experimental: Estimating that at least 60% of the peptides were then bearing the ligand, the solution was diluted to 2 μM concentration and the protein TK was added. The fluorescence response was screened after 15 min, 45 min, 2 hrs, and 20 hrs. A maximal response was seen after 2 hours of incubation time.
# A NUNC™ polystyrene 384 well plate (100 μl-volume) and pipette-tips were coated with Pluronic® overnight, then washed with H2O and dried. The fluorescence-measurement was carried out in Tris-buffers (Buffer for TK-studies: 20 mM Tris/HCl, 0.4 M NaCl, 0.3 M imidazole, 2 mM DTT, 50% glycerol, pH 7.6). Assuming that at least 60% of the dT-binder was conjugated to the polypeptides (see 0), stock-solutions were prepared with a concentration of 60 μM. The concentration of the TK stock solution was 0.10 mM. A polypeptide concentration of 2 μM in […] was used. The protein was added to wells containing the peptide conjugates to give final TK concentrations of 2 or 4 μM. Fluorescence intensities of protein-binder mixtures were compared to intensities of binders without protein and a significant change in fluorescence intensity in the presence of one equivalent of protein, in comparison to that of binder without protein, was interpreted as complexation of target protein by the binder. Binders showing a change in intensity in the presence of 2 μM protein but no further change in intensity in the presence of 4 μM protein were considered “hits”.
# The dansyl probe was excited at 335 nm and emission was recorded 420-600 nm. All measurements were performed at room temperature and were made in triplicates. The wells were read after 15 min, 45 min and 2 hours.
# [2] = CD spectroscopy, mean residue ellipticity of the sixteen scaffold polypeptides; assay type: physicochemical; details: error ±1000; for [θ]222 at high concentration: high concentration 30-230 μM as listed per peptide; for [θ]222 at low concentration: low concentration 1-5 μM as listed per peptide
# Experimental: The mean residue ellipticities at 222 nm, [θ]222, □ of the sixteen scaffold polypeptides were recorded at two concentrations, approximately 30 μM and approximately 1 μM, to characterize the state of aggregation, cf.
# The degree of helix formation is related to the monomer-dimer equilibrium since monomers are unordered with low helical content whereas dimers are highly helical. […] While the ^1H NMR spectra have not been recorded of all sequences and of all polypeptide conjugates, it is likely that the sequences presented here are best described as molten globules.
# thymidine kinase (TK) [3] = assay: Binding studies with TK in the presence of ATP (fluorescence, MALDI-TOF); details: for binding affinity to TK (in words): 1, 2 and 3 eq. TK, buffer with and without ATP; for time after which peptide is fully phosphorylated (MALDI-TOF): TK, buffer with ATP
# Experimental: The fluorescence intensities were measured in presence of 1, 2 and 3 eq. TK in buffer with and without ATP. The introduction of ATP represents a realistic measurement situation as it is present in biological samples and is likely to react with the probe in the presence of TK. Data were collected 15 min, 45 min and 2 hrs after adding the enzyme. The samples for MALDI-TOF were collected appr. 5 mins, 45 mins and 2 hours after adding the enzyme to measure the change in masses.
# HCAI = molecular target: T1, HCAI (Homo sapiens, UniProt P00915); details: literature, read-out: dissociation constant Kd for HCAI, cited from earlier work
# T1 construct: purchased Sigma
# T1 sequence (P00915 whole entry): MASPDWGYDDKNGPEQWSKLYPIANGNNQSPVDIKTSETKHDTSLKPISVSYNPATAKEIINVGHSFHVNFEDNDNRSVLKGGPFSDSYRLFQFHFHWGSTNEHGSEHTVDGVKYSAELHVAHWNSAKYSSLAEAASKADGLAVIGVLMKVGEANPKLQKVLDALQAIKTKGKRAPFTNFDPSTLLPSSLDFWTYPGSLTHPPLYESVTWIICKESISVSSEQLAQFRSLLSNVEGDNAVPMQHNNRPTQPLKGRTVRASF
Substance,[θ]222 at high concentration [2],[θ]222 at low concentration [2],further results
"4-C15L8-dT: polypeptide 4-C15L8 conjugated to deoxy-thymidine (dT) probe 19 (NAADLEAKIRHLREKLAARGPRDAAQLAEQLARRFERFARAG; also: conjugated to deoxy-thymidine (dT) probe 19, site not given here)",,,classification in fluorescence screen (thymidine kinase (TK) [1]): not considered to be tight binders
4-C15L8: SEQ ID NO: 4 NAADLEAKIRHLREKLAARGPRDAAQLAEQLARRFERFARAG,−22000 deg cm^2 dmol^−1,−15300 deg cm^2 dmol^−1,
4-C25L22: SEQ ID NO: 12 NAADLEARIRHLRERLAARGPKDAKQLAEQLARAFERFARAG,−23700 deg cm^2 dmol^−1,−18200 deg cm^2 dmol^−1,
1-C25L22: SEQ ID NO: 9 NEADLEAAIRHLAEALEARGPKDAKQLAEQLARAFEAFERAG,−24800 deg cm^2 dmol^−1,−18000 deg cm^2 dmol^−1,
2-C10L17: SEQ ID NO: 6 NAADLEAAIKHLAEALKARGPVDAAQLAEQLARAFEAFARAG,−23400 deg cm^2 dmol^−1,−20400 deg cm^2 dmol^−1,
1-C10L17: SEQ ID NO: 5 NAADLEAAIKHLAEALKERGPEDCEQLAEQLARAFEAFARAG,−18200 deg cm^2 dmol^−1,−11800 deg cm^2 dmol^−1,
2-C25L22: SEQ ID NO: 10 NEADLEAAIRHLAEALAARGPKDAKQLAEQLARAFEAFARAG,−25000 deg cm^2 dmol^−1,−24800 deg cm^2 dmol^−1,
"2-C37L34-dT: polypeptide 2-C37L34 conjugated to deoxy-thymidine (dT) probe 19 (NAADLEAAIRHLAERLAARGPVDAAQLAEQLAAKFEKFARAG; also: conjugated to deoxy-thymidine (dT) probe 19, site not given here)",,,classification in fluorescence screen (thymidine kinase (TK) [1]): not considered to be tight binders
2-C37L34: SEQ ID NO: 14 NAADLEAAIRHLAERLAARGPVDAAQLAEQLAAKFEKFARAG,−23900 deg cm^2 dmol^−1,−30300 deg cm^2 dmol^−1,
3-C37L34: SEQ ID NO: 15 NAADLEAAIRHLAERLAARGPVDAAQLAEQLARKFEKFARAG,−22500 deg cm^2 dmol^−1,−22200 deg cm^2 dmol^−1,
"3-C10L17-dT: polypeptide 3-C10L17 conjugated to deoxy-thymidine (dT) probe 19 (NAADLEARIKHLAERLKARGPVDAAQLAEQLARAFEAFARAG; also: conjugated to deoxy-thymidine (dT) probe 19, site not given here)",,,classification in fluorescence screen (thymidine kinase (TK) [1]): not considered to be tight binders
3-C25L22: SEQ ID NO: 11 NAADLEAAIRHLAERLAARGPKDAKQLAEQLARAFEAFARAG,−26400 deg cm^2 dmol^−1,−23000 deg cm^2 dmol^−1,
"4-C10L17-dT: polypeptide 4-C10L17 conjugated to deoxy-thymidine (dT) probe 19 (NAADLEARIKHLRERLKARGPRDAAQLAEQLARAFERFARAG; also: conjugated to deoxy-thymidine (dT) probe 19, site not given here)",,,binding affinity to TK (in words) (thymidine kinase (TK) [3]): strong binding affinity; time after which peptide is fully phosphorylated (MALDI-TOF) (thymidine kinase (TK) [3]): 45 min
"3-C15L8-dT: polypeptide 3-C15L8 conjugated to deoxy-thymidine (dT) probe 19 (NAADLEAKIRHLAEKLAARGPVDAAQLAEQLARRFEAFARAG; also: conjugated to deoxy-thymidine (dT) probe 19, site not given here)",,,binding affinity to TK (in words) (thymidine kinase (TK) [3]): good but not as good as for 4-C10L17-dT; time after which peptide is fully phosphorylated (MALDI-TOF) (thymidine kinase (TK) [3]): 45 min
4-C37L34: SEQ ID NO: 16 NAADLEARIRHLRERLAARGPRDAAQLAEQLARKFEKFARAG,−19600 deg cm^2 dmol^−1,−14900 deg cm^2 dmol^−1,
2-C15L8: SEQ ID NO: 2 NEADLEAKIRHLAEKLAARGPVDAAQLAEQLARAFEAFARAG,−24900 deg cm^2 dmol^−1,−20800 deg cm^2 dmol^−1,
"4-C25L22-dT: polypeptide 4-C25L22 conjugated to deoxy-thymidine (dT) probe 19 (NAADLEARIRHLRERLAARGPKDAKQLAEQLARAFERFARAG; also: conjugated to deoxy-thymidine (dT) probe 19, site not given here)",,,binding affinity to TK (in words) (thymidine kinase (TK) [3]): generally good binding affinity; time after which peptide is fully phosphorylated (MALDI-TOF) (thymidine kinase (TK) [3]): 5 to 10 min; classification in fluorescence screen (thymidine kinase (TK) [1]): not considered to be tight binders
3-C10L17: SEQ ID NO: 7 NAADLEARIKHLAERLKARGPVDAAQLAEQLARAFEAFARAG,−22400 deg cm^2 dmol^−1,−20700 deg cm^2 dmol^−1,
benzenesulphonamidecarboxylic acid,,,Kd (HCAI; listed as benzenesulphonamide): 1000 to 4000 nM; Kd (HCAI): 1100 to 3900 nM
3-C15L8: SEQ ID NO: 3 NAADLEAKIRHLAEKLAARGPVDAAQLAEQLARRFEAFARAG,−23400 deg cm^2 dmol^−1,−19700 deg cm^2 dmol^−1,
1-C15L8: SEQ ID NO: 1 NEADLEAKIRHLAEKLEARGPEDAEQLAEQLARAFEAFARAG,−17800 deg cm^2 dmol^−1,−25100 deg cm^2 dmol^−1,
